Laboratory results published in PMC10352601 (Blood, 2023).

Molecular target: T1, ET3i, a bioengineered human/porcine FVIII chimera (Homo sapiens / Sus scrofa chimera (A1, …, chimera))
T1 chain: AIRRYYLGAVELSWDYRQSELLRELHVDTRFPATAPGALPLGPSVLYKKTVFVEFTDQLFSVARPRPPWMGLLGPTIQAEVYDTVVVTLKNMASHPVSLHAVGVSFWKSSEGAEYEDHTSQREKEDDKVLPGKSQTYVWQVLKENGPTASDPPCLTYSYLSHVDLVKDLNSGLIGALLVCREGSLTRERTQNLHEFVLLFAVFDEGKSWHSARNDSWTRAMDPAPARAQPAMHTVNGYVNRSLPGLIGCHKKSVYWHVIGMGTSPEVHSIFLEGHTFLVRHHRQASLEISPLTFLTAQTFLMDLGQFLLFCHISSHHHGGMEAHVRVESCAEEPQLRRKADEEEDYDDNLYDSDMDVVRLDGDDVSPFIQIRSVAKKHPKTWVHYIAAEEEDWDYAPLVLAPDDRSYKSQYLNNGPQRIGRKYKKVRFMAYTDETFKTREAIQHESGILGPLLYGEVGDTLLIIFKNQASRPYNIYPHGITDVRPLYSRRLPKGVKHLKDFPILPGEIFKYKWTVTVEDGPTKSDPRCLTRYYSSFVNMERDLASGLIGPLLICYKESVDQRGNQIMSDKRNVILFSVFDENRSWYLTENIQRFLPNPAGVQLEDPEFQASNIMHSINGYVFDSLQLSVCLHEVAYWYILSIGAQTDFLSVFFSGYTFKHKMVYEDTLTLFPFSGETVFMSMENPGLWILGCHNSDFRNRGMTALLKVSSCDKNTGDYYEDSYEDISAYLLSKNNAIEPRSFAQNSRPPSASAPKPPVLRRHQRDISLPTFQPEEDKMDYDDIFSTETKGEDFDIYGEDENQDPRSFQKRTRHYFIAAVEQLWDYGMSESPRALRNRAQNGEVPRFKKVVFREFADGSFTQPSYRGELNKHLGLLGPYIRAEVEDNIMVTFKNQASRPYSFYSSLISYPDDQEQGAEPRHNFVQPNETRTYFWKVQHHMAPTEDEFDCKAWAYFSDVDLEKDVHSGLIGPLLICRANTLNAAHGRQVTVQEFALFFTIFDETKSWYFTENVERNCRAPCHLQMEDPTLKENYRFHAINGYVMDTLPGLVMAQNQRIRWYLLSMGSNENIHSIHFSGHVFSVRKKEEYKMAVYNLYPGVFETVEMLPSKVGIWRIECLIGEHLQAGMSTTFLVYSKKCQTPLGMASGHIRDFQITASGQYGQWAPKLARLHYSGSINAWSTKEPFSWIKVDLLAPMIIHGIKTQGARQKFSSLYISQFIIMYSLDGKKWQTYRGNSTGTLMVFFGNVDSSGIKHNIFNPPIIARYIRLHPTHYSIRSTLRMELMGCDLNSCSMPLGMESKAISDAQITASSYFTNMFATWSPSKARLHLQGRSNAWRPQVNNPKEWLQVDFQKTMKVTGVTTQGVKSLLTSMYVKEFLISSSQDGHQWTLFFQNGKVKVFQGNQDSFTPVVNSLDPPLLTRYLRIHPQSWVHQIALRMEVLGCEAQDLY
Experiment: cell-based or functional assay

- neutralization of ET3i by NB33, factor X activation chromogenic assay (IC50): 3.64 nM
B1: Fab fragment of NB33, a recombinant immunoglobulin G derivative of KM33 (Fab, V domains shown)
VH: EVQLVESGGGVVQPGRSLRLSCVDSGLTFSSYGMHWVRQAPGAGLEWVAVISYDGNDKYYADSVKGRFAISRDNAKNTLYLQMNSLTIEDTAVYYCAKDLIESNIAEAFWGQGTLVTVSS
VL: DIQMTQSPSSLSASVGDTVTIACRASRDIRNDLAWYQQKPGKAPKLLIYATSRLQSGVPSRFSGSGSFTDFTLTINSLQPDDSATYYCLQDSDYPLTFGGGTKVDIK
